Series [1] concerns supernatant from human bone marrow aspirates. As to the kind of experiment: In situ stability of peptide probes in supernatant from human bone marrow aspirates. As to conditions: 20 μM peptide probe, 37° C.
Series [2] concerns the target T1, MT-SP1 (Homo sapiens, UniProt Q9Y5Y6).
T1 sequence (Q9Y5Y6 1-855): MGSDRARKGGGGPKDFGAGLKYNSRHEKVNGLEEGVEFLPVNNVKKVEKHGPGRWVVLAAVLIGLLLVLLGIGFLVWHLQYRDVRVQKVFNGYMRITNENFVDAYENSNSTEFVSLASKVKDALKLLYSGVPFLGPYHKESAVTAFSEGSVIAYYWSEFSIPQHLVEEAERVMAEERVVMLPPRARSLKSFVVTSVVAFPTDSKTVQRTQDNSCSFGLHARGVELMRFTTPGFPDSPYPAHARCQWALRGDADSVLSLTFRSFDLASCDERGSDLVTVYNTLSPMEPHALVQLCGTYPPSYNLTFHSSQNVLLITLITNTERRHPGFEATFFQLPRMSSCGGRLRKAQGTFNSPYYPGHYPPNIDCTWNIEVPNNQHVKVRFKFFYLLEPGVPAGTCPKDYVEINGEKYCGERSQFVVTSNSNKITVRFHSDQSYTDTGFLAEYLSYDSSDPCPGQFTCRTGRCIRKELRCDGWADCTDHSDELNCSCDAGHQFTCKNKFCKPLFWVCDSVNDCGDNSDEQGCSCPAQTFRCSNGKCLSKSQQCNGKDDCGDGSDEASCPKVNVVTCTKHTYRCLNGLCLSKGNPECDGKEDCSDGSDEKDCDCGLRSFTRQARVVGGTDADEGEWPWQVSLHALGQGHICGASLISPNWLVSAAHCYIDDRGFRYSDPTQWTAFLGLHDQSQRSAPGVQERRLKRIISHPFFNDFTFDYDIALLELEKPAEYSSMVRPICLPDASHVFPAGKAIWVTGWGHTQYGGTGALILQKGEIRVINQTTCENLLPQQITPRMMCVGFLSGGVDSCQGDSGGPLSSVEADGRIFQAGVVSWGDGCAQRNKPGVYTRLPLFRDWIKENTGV
Nature of the series: Internally quenched peptide probe cleavage assay, MT-SP1. Format: biochemical. The following applies: internally quenched peptide probe 20 μM (20 pM in source), 20 nM protease, 37° C. On the procedure:
(§1) The CMs listed in Table 9 below were presented in an internally quenched peptide probe format, rather than included in an activatable antibody format. […] Cleavability kinetics (i.e., pM/s and kcat/KM (M^-1s^-1)) were determined in 96- or 384-well plate format at 37° C. in the following buffers: 50 mM TRIS-HCl (pH 7.4), 150 mM NaCl, 0.05% Tween 20 for MT-SP1, 50 mM Tris-HCl (pH 7.5), 10 mM CaCl2, 150 mM NaCl, 0.05% (w/v) Brij-35 for MMP2 and MMP9, and 50 mM HEPES (pH 6.8), 10 mM CaCl2, 0.5 mM MgCl2, 0.05% (w/v) Brij-35 for MMP14. Cleavability kinetics were determined on an Infinite 200 PRO (Tecan) multimode plate reader using a fluorescence excitation wavelength of 320 nm and an emission wavelength of 405 nm. […] The CMs listed in Table 12 below were presented in an internally quenched peptide probe format, rather than included in an activatable antibody format. […] Cleavability kinetics (i.e., pM/s) were determined in 96- or 384-well plate format at 37° C. in the following buffers: 50 mM TRIS-HCl (pH 7.4), 150 mM NaCl, 0.05% Tween 20 for MT-SP1, 50 mM Tris-HCl (pH 7.5), 10 mM CaCl2, 150 mM NaCl, 0.05% (w/v) Brij-35 for MMP2 and MMP9, and 50 mM HEPES (pH 6.8), 10 mM CaCl2, 0.5 mM MgCl2, 0.05% (w/v) Brij-35 for MMP14. Cleavability kinetics were determined on an Infinite 200 PRO (Tecan) multimode plate reader using a fluorescence excitation wavelength of 320 nm and an emission wavelength of 405 nm.

Series [3] has as its target T2, MMP2 (Homo sapiens, UniProt P08253).
T2 sequence (P08253 110-660): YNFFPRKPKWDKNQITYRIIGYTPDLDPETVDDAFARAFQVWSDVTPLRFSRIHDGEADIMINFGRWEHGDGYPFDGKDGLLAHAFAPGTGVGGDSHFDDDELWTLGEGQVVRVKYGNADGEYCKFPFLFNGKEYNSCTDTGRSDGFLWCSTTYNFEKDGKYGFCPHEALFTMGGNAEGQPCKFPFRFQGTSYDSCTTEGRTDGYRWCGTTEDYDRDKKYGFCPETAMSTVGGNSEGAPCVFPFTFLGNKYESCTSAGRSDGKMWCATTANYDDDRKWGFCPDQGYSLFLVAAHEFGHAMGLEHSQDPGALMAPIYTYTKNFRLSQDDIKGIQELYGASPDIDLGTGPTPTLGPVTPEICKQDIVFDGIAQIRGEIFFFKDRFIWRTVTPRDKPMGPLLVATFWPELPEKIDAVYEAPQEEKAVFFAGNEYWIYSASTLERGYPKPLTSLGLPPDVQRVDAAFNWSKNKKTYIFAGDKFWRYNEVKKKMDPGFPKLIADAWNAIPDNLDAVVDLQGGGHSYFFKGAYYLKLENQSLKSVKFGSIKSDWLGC
Nature of the series: Internally quenched peptide probe cleavage assay, MMP2. The following applies: internally quenched peptide probe 20 μM (20 pM in source), 20 nM protease, 37° C. Format: biochemical. The procedure: as §1

Series [4] deals with MMP9 (Homo sapiens, UniProt P14780). As to the kind of experiment: Internally quenched peptide probe cleavage assay, MMP9. The following applies: internally quenched peptide probe 20 μM (20 pM in source), 20 nM protease, 37° C. Format: biochemical. On the procedure:
as §1

For series [5], the target named is MMP14 (Homo sapiens, UniProt P50281). Nature of the series: Internally quenched peptide probe cleavage assay, MMP14. Format: biochemical. As to conditions: internally quenched peptide probe 20 μM (20 pM in source), 20 nM protease, 37° C. The procedure:
as §1

Square brackets hold non-standard residues; d marks the D form. Ends that are not written are not given here. Peptide text beside a SMILES is read from it. * marks the point of attachment. Dnp = O=[N+]([O-])c1ccc(*)c([N+](=O)[O-])c1; Mca = COc1ccc2c(CC(=O)*)cc(=O)oc2c1

Chain of MMP9 (P14780 94-707): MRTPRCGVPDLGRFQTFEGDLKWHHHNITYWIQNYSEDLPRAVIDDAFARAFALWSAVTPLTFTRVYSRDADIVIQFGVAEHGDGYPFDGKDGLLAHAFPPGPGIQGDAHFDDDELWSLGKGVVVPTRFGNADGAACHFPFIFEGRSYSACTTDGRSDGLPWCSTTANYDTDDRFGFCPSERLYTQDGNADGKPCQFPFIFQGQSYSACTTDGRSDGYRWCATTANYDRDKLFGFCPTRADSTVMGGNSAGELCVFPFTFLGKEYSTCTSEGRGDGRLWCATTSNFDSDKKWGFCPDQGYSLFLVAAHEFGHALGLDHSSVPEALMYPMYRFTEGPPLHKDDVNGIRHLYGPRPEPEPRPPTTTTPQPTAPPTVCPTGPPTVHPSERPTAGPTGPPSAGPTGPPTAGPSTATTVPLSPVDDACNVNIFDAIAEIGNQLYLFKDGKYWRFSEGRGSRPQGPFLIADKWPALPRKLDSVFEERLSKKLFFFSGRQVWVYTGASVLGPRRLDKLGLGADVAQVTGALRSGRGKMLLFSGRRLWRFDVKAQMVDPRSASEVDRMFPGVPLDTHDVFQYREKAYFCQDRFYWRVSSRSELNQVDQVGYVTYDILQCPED

For the compound `COc1ccc2c(CC(=O)N[C@@H](CO)C(=O)N3CCC[C@H]3C(=O)N[C@@H](C)C(=O)NCC(=O)N[C@@H](CC(C)C)C(=O)N[C@@H](CO)C(=O)NCC(=O)N[C@@H](CCCNC(=N)N)C(=O)N[C@@H](CO)C(=O)NCC(=O)N[C@@H](CCCCNc3ccc([N+](=O)[O-])cc3[N+](=O)[O-])C(=O)N[C@H](CCCNC(=N)N)C(=O)O)cc(=O)oc2c1` [reference compound] (Mca-SPAGLSGRSGK(Dnp)[dR]-OH), the “cleavage rate in supernatant from human bone marrow aspirates” value in series [1] is 2191 pM/s.

As for “AIALHQSRS (also: MCA, Lys(DNP), D-Arg labels, places not given here)”, the “Probe Cleavage (pM/s) MT-SP1” value in series [2] was 11500 pM/s. Moreover, the “Probe Cleavage (pM/s) MMP2” value in series [3] turned out to be 4220 pM/s. Further, the “Probe Cleavage (pM/s) MMP9” value in series [4] amounted to 2550 pM/s. Also, the “Probe Cleavage (pM/s) MMP14” value in series [5] was found to be 1280 pM/s.

Regarding “AQSRSGPWGLL (Mca-AQSRSGPWGLL-{Lys(DNP)-dR})”, the “Probe Cleavage (pM/s) MMP2” value in series [3] is listed as 726 pM/s. Also, the “Probe Cleavage (pM/s) MMP14” value in series [5] is given as 437 pM/s.

In the case of “HASRSGPWGLL (Mca-HASRSGPWGLL-{Lys(DNP)-dR})”, the “Probe Cleavage (pM/s) MMP2” value in series [3] was 692 pM/s. The “Probe Cleavage (pM/s) MMP14” value in series [5] was found to be 424 pM/s.

For “HQARSGPWGLL (Mca-HQARSGPWGLL-{Lys(DNP)-dR})”, the “Probe Cleavage (pM/s) MMP2” value in series [3] is listed as 623 pM/s. In addition, the “Probe Cleavage (pM/s) MMP14” value in series [5] is 344 pM/s.

Take “HQSASGPWGLL (also: MCA, Lys(DNP), D-Arg labels, places not given here)”: the “Probe Cleavage (pM/s) MT-SP1” value in series [2] turned out to be 8.00 pM/s. In addition, in series [3], the “Probe Cleavage (pM/s) MMP2” value is recorded as 696 pM/s. The “Probe Cleavage (pM/s) MMP14” value in series [5] is listed as 335 pM/s.

For “HQSRAGPWGLL (Mca-HQSRAGPWGLL-{Lys(DNP)-dR})”, the “Probe Cleavage (pM/s) MMP2” value in series [3] worked out at 594 pM/s. Further, the “Probe Cleavage (pM/s) MMP14” value in series [5] turned out to be 379 pM/s.

For the compound “HQSRPWGL (also: MCA, Lys(DNP), D-Arg labels, places not given here)”, the “Probe Cleavage (pM/s) MT-SP1” value in series [2] is 32.0 pM/s. Further, the “Probe Cleavage (pM/s) MMP14” value in series [5] came out at 548 pM/s.

On to HQSRSAIAL (Mca-HQSRSAIAL-{Lys(DNP)-dR}), for which the “Probe Cleavage (pM/s) MMP2” value in series [3] stood at 76.9 pM/s. For the same compound, in series [4], the “Probe Cleavage (pM/s) MMP9” value amounted to 41.9 pM/s. In addition, in series [5], the “Probe Cleavage (pM/s) MMP14” value is recorded as 95.5 pM/s.

Take “HQSRSAIALY (also: MCA, Gly-Lys(DNP)-D-Arg labels, places not given here) [X1 is Y]”: the “Probe Cleavage (pM/s) MT-SP1” value in series [2] was found to be 1960 pM/s. Besides, in series [3], the “Probe Cleavage (pM/s) MMP2” value is given as 434 pM/s. Besides, the “Probe Cleavage (pM/s) MMP9” value in series [4] was 328 pM/s. Also, the “Probe Cleavage (pM/s) MMP14” value in series [5] is recorded as 92.7 pM/s.

For the compound “HQSRSAIALYA (also: MCA, Lys(DNP), D-Arg labels, places not given here) [X1 is Y and X2 is A]”, in series [2], the “Probe Cleavage (pM/s) MT-SP1” value came out at 1750 pM/s. Further, in series [3], the “Probe Cleavage (pM/s) MMP2” value was 468 pM/s. Besides, the “Probe Cleavage (pM/s) MMP9” value in series [4] is listed as 255 pM/s. Further, the “Probe Cleavage (pM/s) MMP14” value in series [5] was 300 pM/s.

In the case of “HQSRSAPWGLL (Mca-HQSRSAPWGLL-{Lys(DNP)-dR})”, in series [5], the “Probe Cleavage (pM/s) MMP14” value is 660 pM/s.

Regarding “HQSRSGAWGLL (Mca-HQSRSGAWGLL-{Lys(DNP)-dR})”, the “Probe Cleavage (pM/s) MMP2” value in series [3] was 65.4 pM/s. Besides, the “Probe Cleavage (pM/s) MMP9” value in series [4] is on record as 436 pM/s. Besides, the “Probe Cleavage (pM/s) MMP14” value in series [5] came to 36.4 pM/s.

For the compound “HQSRSGPWALL (Mca-HQSRSGPWALL-{Lys(DNP)-dR})”, the “Probe Cleavage (pM/s) MMP2” value in series [3] is recorded as 488 pM/s. The “Probe Cleavage (pM/s) MMP14” value in series [5] turned out to be 475 pM/s.

With “HQSRSGPWGAL (Mca-HQSRSGPWGAL-{Lys(DNP)-dR})”, the “Probe Cleavage (pM/s) MMP2” value in series [3] stood at 61.1 pM/s. Moreover, the “Probe Cleavage (pM/s) MMP9” value in series [4] turned out to be 5.9 pM/s. For the same compound, the “Probe Cleavage (pM/s) MMP14” value in series [5] worked out at 0.00 pM/s.

Turning to “HQSRSGPWGL (Mca-HQSRSGPWGL-{Lys(DNP)-dR}) [X1 absent]”, the “Probe Cleavage (pM/s) MMP2” value in series [3] is listed as 94.8 pM/s. Also, the “Probe Cleavage (pM/s) MMP9” value in series [4] was 705 pM/s. For the same compound, the “Probe Cleavage (pM/s) MMP14” value in series [5] stood at 27.3 pM/s.

With “HQSRSGPWGLA (Mca-HQSRSGPWGLA-{Lys(DNP)-dR})”, the “Probe Cleavage (pM/s) MMP2” value in series [3] worked out at 410 pM/s. Besides, the “Probe Cleavage (pM/s) MMP14” value in series [5] is 345 pM/s.

Take HQSRSPWG (Mca-HQSRSPWG-{Lys(DNP)-dR}): in series [3], the “Probe Cleavage (pM/s) MMP2” value was found to be 61.6 pM/s. Besides, in series [4], the “Probe Cleavage (pM/s) MMP9” value is 86.5 pM/s. For the same compound, the “Probe Cleavage (pM/s) MMP14” value in series [5] amounted to 0.00 pM/s.

With “PWGLHQSRS (also: MCA, Lys(DNP)-D-Arg labels, places not given here)”, the “Probe Cleavage (pM/s) MT-SP1” value in series [2] was found to be 1280 pM/s. Moreover, the “Probe Cleavage (pM/s) MMP2” value in series [3] amounted to 2550 pM/s. Moreover, the “Probe Cleavage (pM/s) MMP9” value in series [4] came to 5150 pM/s. The “Probe Cleavage (pM/s) MMP14” value in series [5] amounted to 5880 pM/s. Also, in series [1], the “cleavage rate in supernatant from human bone marrow aspirates” value was 302 pM/s.

These data come from US12551571B2, “Protease-cleavable substrates and methods of use thereof” (CytomX Therapeutics, Inc., priority 2022, dated 2026).
